US20240294570

Tests used:
[1] = test system: T1, L-phosphopentapeptide 5, NBD-βA-LLLLpY
T1 sequence: XLLLLX

[2] = test system: T2, phosphopentapeptide 7, NBD-βA-LLpYLL
T2 sequence: XLLXLL

[3] = test system: T3, phosphopeptide 3, NBD-βA-LLLpY
T3 sequence: XLLLX

[4] = test system: T4, phosphopentapeptide 9, NBD-βA-llllpY
T4 sequence: LLLLY

Question: Which “conversion of 5 to 6 after 1 hour, 0.1 U/mL ALP” value [1] does the source give for “Alkaline phosphatase (Biomatik, Cat. No. A1130)” here?
Answer: After 1 hour of incubation, 32.7% of 5 turns into 6

Question: What about the “conversion of 5 to 6 after 2 hours, 0.1 U/mL ALP” value [1] of the same substance?
Answer: After 2 hours of incubation of 5 with 0.1 U/mL of ALP, 49.6% of 5 becomes 6

Question: What about the “dephosphorylation ratio after 5 hours, 400 µM of 5, 0.5 U/mL ALP” value [1] of the same substance?
Answer: After 5 hours of incubation, 400 µM of 5 results in a dephosphorylation ratio of 93.8%

Question: And the “final dephosphorylation ratio, 5 (400 µM), 0.1 U/mL ALP” value [1]?
Answer: the final dephosphorylation ratio is 69.1%

Question: What about the “fraction of 5 hydrolyzed at 40 minutes, 0.1 U/mL ALP” value [1] of the same substance?
Answer: At the time point 40 minutes, about 24% of 5 is hydrolyzed by ALP

Question: And the “conversion ratio of 7 to 8 after 5 h, 0.5 U/mL ALP” value [2]?
Answer: After 5 h of incubation, the conversion ratio of 7 to 8 is 61.5%

Question: What about the “dephosphorylation catalyzed by ALP” value [3] of the same substance?
Answer: 3 is able to turn into 4 upon dephosphorylation catalyzed by ALP

Question: And the “conversion ratio of 9 to 10 after 5 hours, 0.5 U/mL ALP” value [4]?
Answer: After 5 hours of incubation, the conversion ratio of 9 to 10 is 93.3%
